Where “and” joins values, the source holds several entries; their conditions need not be identical. Equal entries are not always repeated. Where two headings read alike, the source gives them in different places. Blank lines part the entries; values can stand above or below the molecule they belong to.
Legend:
[1] = target: Nrx1β-Fc (neurexin-1β C-terminally fused to human Fc) (UniProt Q63373)
[2] = target: Nrx1β-Fc (neurexin-1β C-terminally fused to human Fc) (UniProt Q63373); remark: listed apart in the source
[3] = target: Nrx1β-Fc (neurexin-1β C-terminally fused to human Fc) (UniProt Q63373); remark: listed apart in the source
[4] = target: Nlg1^E584A/L585A-GFP, in HEK cell lysate (UniProt Q99K10); assay: single molecule pull-down with counting of photobleaching steps
[5] = target: Nrx1β-Fc (neurexin-1β C-terminally fused to human Fc) (UniProt Q63373); remark: listed apart in the source
[6] = target: Nlg1-GFP, wild type, in HEK cell lysate (UniProt Q99K10); assay: single molecule pull-down with counting of photobleaching steps
[7] = target: Nrx1β-Fc (neurexin-1β C-terminally fused to human Fc) (UniProt Q63373); assay: FRAP of soluble fluorescent protein bound to ligand-coated micropatterns

Molecule: Nlg1^E584A/L585A-GFP, in HEK cell lysate (from UniProt Q99K10 46-843) (receptor)
percent in a monomeric form (1 photobleaching step) [4]: 55%

Molecule: HA-Nlg1^E584A/L585A-GFP (-21), expressed in COS-7 cells (from UniProt Q99K10 46-843) (receptor)
enrichment level E (fluorescence on ligand stripes / PEG lines) [5]: 2.5

Molecule: Nlg1-GFP, wild type, in HEK cell lysate (from UniProt Q99K10 46-843) (receptor)
stoichiometry N [6]: 2

B1: Nlg1-HaloTag-AF488 (purified dimeric Nlg1 C-terminally fused to Halo-tag, conjugated to AF488) (other)
chain: QKLDDVDPLVTTNFGKIRGIKKELNNEILGPVIQFLGVPYAAPPTGEHRFQPPEPPSPWSDIRNATQFAPVCPQNIIDGRLPEVMLPVWFTNNLDVVSSYVQDQSEDCLYLNIYVPTEDVKRISKECARKPGKKICRKGDIRDSGGPKPVMVYIHGGSYMEGTGNLYDGSVLASYGNVIVITVNYRLGVLGFLSTGDQAAKGNYGLLDLIQALRWTSENIGFFGGDPLRITVFGSGAGGSCVNLLTLSHYSEGNRWSNSTKGLFQRAIAQSGTALSSWAVSFQPAKYARILATKVGCNVSDTVELVECLQKKPYKELVDQDVQPARYHIAFGPVIDGDVIPDDPQILMEQGEFLNYDIMLGVNQGEGLKFVENIVDSDDGVSASDFDFAVSNFVDNLYGYPEGKDVLRETIKFMYTDWADRHNPETRRKTLLALFTDHQWVAPAVATADLHSNFGSPTYFYAFYHHCQTDQVPAWADAAHGDEVPYVLGIPMIGPTELFPCNFSKNDVMLSAVVMTYWTNFAKTGDPNQPVPQDTKFIHTKPNRFEEVAWTRYSQKDQLYLHIGLKPRVKEHYRANKVNLWLELVPHLHNLNDISQYTSTTTKVPSTDITLRPTRKNSTPVTSAFPTAKQDDPKQQPSPFSVDQRDYSTELS
modifications: HaloTag-Alexa488 ligand (Promega G1002) coupled to the HaloTag
koff [7]: ~0.0015 s⁻¹

The next lines start with the values.

enrichment level E (fluorescence on ligand stripes / PEG lines) [1]: 2.3
koff [2]: 0.004 s⁻¹
Molecule: HA-Nlg1-GFP (-21), wild type, expressed in COS-7 cells (from UniProt Q99K10 46-843) (receptor)

koff of the reaction part of the PSD-95-GFP FRAP curves [3]: 0.005 s⁻¹ and 0.008 s⁻¹
Molecule: AP-Nlg1 (AP-tagged Nlg1, full length), expressed in COS-7 cells (from UniProt Q62765 46-843) (receptor)

— paper doi:10.1101/2024.03.17.584836 (bioRxiv, 2024)
